According to article PMC10341432, “Cross-Linking Mass Spectrometry on P-Glycoprotein” (International Journal of Molecular Sciences, 2023):

Legend:
[1] = target: T1, P-glycoprotein (human), as expressed on NIH 3T3 MDR1 cells (human, UniProt P08183, N-glycans on ECL1); assay: flow cytometry on cells; living NIH 3T3 MDR1 cells treated with 0, 50, 100 or 200 U/mL PNGase F; 10 µg/mL 15D3 or UIC2 for 30 min at 37 °C in glucose-PBS; Alexa-488 anti-mouse goat secondary antibody; details: one partner purified
T1 construct: P-glycoprotein (MDR1, ABCB1), human; integral membrane protein on the cell surface; Cell line a gift from M. Gottesman; also called Pgp; multi-drug resistance protein 1; source: NIH 3T3 MDR1 mouse fibroblasts, human Mdr1 gene-transduced, stably expressing; on living cells and in membrane preparation (Mem-PER Plus kit)
T1 sequence (P08183 whole entry): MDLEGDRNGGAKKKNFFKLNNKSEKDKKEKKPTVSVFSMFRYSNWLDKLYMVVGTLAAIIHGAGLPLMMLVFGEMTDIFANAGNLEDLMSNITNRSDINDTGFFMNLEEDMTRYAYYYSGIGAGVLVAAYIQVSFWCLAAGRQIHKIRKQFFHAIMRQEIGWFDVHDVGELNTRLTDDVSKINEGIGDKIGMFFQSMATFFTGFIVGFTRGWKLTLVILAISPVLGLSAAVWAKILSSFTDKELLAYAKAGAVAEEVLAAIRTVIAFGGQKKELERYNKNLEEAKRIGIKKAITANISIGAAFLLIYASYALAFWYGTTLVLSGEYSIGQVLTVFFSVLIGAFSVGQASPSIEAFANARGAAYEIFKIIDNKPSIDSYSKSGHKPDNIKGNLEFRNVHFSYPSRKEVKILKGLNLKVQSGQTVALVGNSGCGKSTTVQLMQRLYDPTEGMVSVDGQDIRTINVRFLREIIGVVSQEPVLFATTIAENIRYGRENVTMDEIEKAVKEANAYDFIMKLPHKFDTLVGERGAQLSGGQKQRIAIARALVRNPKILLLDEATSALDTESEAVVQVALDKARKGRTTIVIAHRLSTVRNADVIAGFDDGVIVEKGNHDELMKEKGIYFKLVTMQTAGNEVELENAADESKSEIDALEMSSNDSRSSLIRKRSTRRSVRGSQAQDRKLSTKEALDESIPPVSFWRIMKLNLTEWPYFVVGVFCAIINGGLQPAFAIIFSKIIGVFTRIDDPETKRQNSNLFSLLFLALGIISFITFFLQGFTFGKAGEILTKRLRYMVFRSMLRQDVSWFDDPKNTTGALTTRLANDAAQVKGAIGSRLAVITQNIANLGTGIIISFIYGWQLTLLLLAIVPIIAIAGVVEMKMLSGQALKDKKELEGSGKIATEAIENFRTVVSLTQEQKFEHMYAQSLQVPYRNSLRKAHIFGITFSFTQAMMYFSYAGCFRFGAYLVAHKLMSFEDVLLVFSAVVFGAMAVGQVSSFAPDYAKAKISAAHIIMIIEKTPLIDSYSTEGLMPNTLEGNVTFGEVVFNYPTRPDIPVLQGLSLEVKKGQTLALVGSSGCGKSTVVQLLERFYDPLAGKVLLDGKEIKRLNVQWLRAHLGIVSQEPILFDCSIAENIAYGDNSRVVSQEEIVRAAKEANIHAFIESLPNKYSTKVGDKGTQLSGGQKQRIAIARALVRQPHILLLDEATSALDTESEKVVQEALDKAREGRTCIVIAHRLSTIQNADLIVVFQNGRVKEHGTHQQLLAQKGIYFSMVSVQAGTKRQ

[2] = target: T2, P-glycoprotein (human) on NIH 3T3 MDR1 cells after PNGase F treatment (Homo sapiens, UniProt P08183, all N-linked oligosaccharides removed from ECL1 by PNGase F); assay: as above; details: one partner purified
T2 construct: P-glycoprotein (MDR1, ABCB1), human; N-glycans of ECL1 removed on living cells; also called Pgp; deglycosylated Pgp; source: NIH 3T3 MDR1 mouse fibroblasts, human Mdr1 gene-transduced; living cells treated with PNGase F (50, 100 or 200 U/mL)
T2 sequence (P08183 whole entry): as above

binding result [1]: binds
binding result [2]: binds
B1: 15D3 mouse monoclonal anti-Pgp antibody (antibody, V domains shown)
VH: EVKVVESGGVLVRPGGSLKLSCAASGFTFSRYTMSWVRQTPEKRLEWVATISSGGGNTYYPDSVKGRFTVSRDNAMSSLYLQMSSLRSEDTALYYCARYGAGDAWFAYWGQGTLVTVSA
VL: ELAMTQTPLSLPVSLGDQASISCRSSQSIVHSTGNTYLEWYLQKPGQSPKLLIYKVSNRFSGVPDRFSGSGSGTDFTLKISRLEAEDLGVYYCFQGSHFPRTFGGGTRLEIK
notes: mouse IgG1 constant part; IgG1; also called 15D3 mAb; source: hybridoma (ATCC HB-11342) supernatant or mouse ascites, purified (Protein G)
